Assay results reported in US20220204580A1 (AstraZeneca / MedImmune, published 2022).
Numbered stars: 1 amine (or outer) side, 2 acyl side, 3 side chain; on linkers, the order of the positions; unused ones are H or OH. Bridge positions count the residues as written; N and C are the ends. Square brackets hold non-standard residues; d marks the D form. Side chains are listed from the residue outwards. Ends that are not written are not given here. * marks the point of attachment. C18 diacid = O=C(O)CCCCCCCCCCCCCCCCC(=O)*; γGlu = O=C(O)[C@H](CCC(=O)[*:2])N[*:1]; Aib = CC(C)(N)C(=O)O

B1: Peptide 88 (SEQ ID NO: 88) (peptide)
peptide: K([γGlu-C18 diacid])KCNTATCATQRLANFLVHSS[Aib]NFGPIL[Aib]PTNVGSNTY-NH2
modifications: disulfide 3-8; N-terminus assumed
SMILES: CC[C@H](C)[C@H](NC(=O)[C@@H]1CCCN1C(=O)CNC(=O)[C@H](Cc1ccccc1)NC(=O)[C@H](CC(N)=O)NC(=O)C(C)(C)NC(=O)[C@H](CO)NC(=O)[C@H](CO)NC(=O)[C@H](Cc1c[nH]cn1)NC(=O)[C@@H](NC(=O)[C@H](CC(C)C)NC(=O)[C@H](Cc1ccccc1)NC(=O)[C@H](CC(N)=O)NC(=O)[C@H](C)NC(=O)[C@H](CC(C)C)NC(=O)[C@H](CCCNC(=N)N)NC(=O)[C@H](CCC(N)=O)NC(=O)[C@@H](NC(=O)[C@H](C)NC(=O)[C@@H]1CSSC[C@H](NC(=O)[C@H](CCCCN)NC(=O)[C@@H](N)CCCCNC(=O)CC[C@H](NC(=O)CCCCCCCCCCCCCCCCC(=O)O)C(=O)O)C(=O)N[C@@H](CC(N)=O)C(=O)N[C@@H]([C@@H](C)O)C(=O)N[C@@H](C)C(=O)N[C@@H]([C@@H](C)O)C(=O)N1)[C@@H](C)O)C(C)C)C(=O)N[C@@H](CC(C)C)C(=O)NC(C)(C)C(=O)N1CCC[C@H]1C(=O)N[C@H](C(=O)N[C@@H](CC(N)=O)C(=O)N[C@H](C(=O)NCC(=O)N[C@@H](CO)C(=O)N[C@@H](CC(N)=O)C(=O)N[C@H](C(=O)N[C@@H](Cc1ccc(O)cc1)C(N)=O)[C@@H](C)O)C(C)C)[C@@H](C)O
B2: Peptide 89 (SEQ ID NO: 89) (peptide)
peptide: K([γGlu-γGlu-C18 diacid])CNTATCATQRLANFLVHSS[Aib]NFGPILPPT[Aib]VGSNTY-NH2
modifications: disulfide 2-7
B3: Peptide 87 (SEQ ID NO: 87) (peptide)
peptide: K([γGlu-C18 diacid])KCNTATCATQRLANFL[Aib]HSS[Aib]NFGPILPPTNVGSNTP-NH2
modifications: disulfide 3-8; N-terminus assumed
SMILES: CC[C@H](C)[C@H](NC(=O)[C@@H]1CCCN1C(=O)CNC(=O)[C@H](Cc1ccccc1)NC(=O)[C@H](CC(N)=O)NC(=O)C(C)(C)NC(=O)[C@H](CO)NC(=O)[C@H](CO)NC(=O)[C@H](Cc1c[nH]cn1)NC(=O)C(C)(C)NC(=O)[C@H](CC(C)C)NC(=O)[C@H](Cc1ccccc1)NC(=O)[C@H](CC(N)=O)NC(=O)[C@H](C)NC(=O)[C@H](CC(C)C)NC(=O)[C@H](CCCNC(=N)N)NC(=O)[C@H](CCC(N)=O)NC(=O)[C@@H](NC(=O)[C@H](C)NC(=O)[C@@H]1CSSC[C@H](NC(=O)[C@H](CCCCN)NC(=O)[C@@H](N)CCCCNC(=O)CC[C@H](NC(=O)CCCCCCCCCCCCCCCCC(=O)O)C(=O)O)C(=O)N[C@@H](CC(N)=O)C(=O)N[C@@H]([C@@H](C)O)C(=O)N[C@@H](C)C(=O)N[C@@H]([C@@H](C)O)C(=O)N1)[C@@H](C)O)C(=O)N[C@@H](CC(C)C)C(=O)N1CCC[C@H]1C(=O)N1CCC[C@H]1C(=O)N[C@H](C(=O)N[C@@H](CC(N)=O)C(=O)N[C@H](C(=O)NCC(=O)N[C@@H](CO)C(=O)N[C@@H](CC(N)=O)C(=O)N[C@H](C(=O)N1CCC[C@H]1C(N)=O)[C@@H](C)O)C(C)C)[C@@H](C)O

molecular target: T1, human amylin receptor (calcitonin receptor co-expressed with receptor activity modifying protein, RAMP3) (human, UniProt P30988 25-474; O60896 24-148); assay: cell-based or functional assay
T1 sequence (looked up) 1: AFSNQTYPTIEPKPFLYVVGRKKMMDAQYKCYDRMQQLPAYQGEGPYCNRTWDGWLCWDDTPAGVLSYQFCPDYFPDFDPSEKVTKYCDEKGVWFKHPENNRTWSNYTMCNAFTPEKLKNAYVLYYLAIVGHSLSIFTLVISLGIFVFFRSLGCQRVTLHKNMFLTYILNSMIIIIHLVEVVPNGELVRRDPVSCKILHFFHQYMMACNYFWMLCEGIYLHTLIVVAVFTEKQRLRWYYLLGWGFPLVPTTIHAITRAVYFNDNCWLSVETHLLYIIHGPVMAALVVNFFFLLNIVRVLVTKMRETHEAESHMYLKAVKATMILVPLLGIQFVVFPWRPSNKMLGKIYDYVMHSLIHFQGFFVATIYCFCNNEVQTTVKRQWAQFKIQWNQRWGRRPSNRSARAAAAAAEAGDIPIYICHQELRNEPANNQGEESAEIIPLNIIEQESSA
T1 sequence (looked up) 2: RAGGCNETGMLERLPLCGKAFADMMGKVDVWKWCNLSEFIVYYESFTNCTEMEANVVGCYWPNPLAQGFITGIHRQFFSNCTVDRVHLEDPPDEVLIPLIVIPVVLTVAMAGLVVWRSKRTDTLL

Question: Which results are given for B1?
Answer: EC50 (cAMP production): 0.281 nM; Ratio (EC50 hCTR / EC50 hAMYR3): 4

Question: What does the source list for B2?
Answer: EC50 (cAMP production): 0.447 nM; Ratio (EC50 hCTR / EC50 hAMYR3): 18

Question: Which results are given for B3?
Answer: EC50 (cAMP production): 0.071 nM; Ratio (EC50 hCTR / EC50 hAMYR3): 1

molecular target: T2, human calcitonin receptor (human, UniProt P30988 25-474); assay: cell-based or functional assay
T2 sequence (looked up): T1 sequence (looked up) 1

Question: Which “EC50 (cAMP production)” value does the source give for B1 here?
Answer: The value was 1.17 nM.

Question: Which “EC50 (cAMP production)” value does the source give for B2 here?
Answer: The value was 8.24 nM.

Question: Which “EC50 (cAMP production)” value does the source give for B3 here?
Answer: The value was 0.074 nM.
